We go through four molecules from publication PMC12343898.

Series [1] deals with T1, OsLHY (Oryza sativa, UniProt A0A0P0XBU0 1-719). Put plainly: competition.
The target of series [2] is T1, OsLHY. Put plainly: competition. This is another data set of the same source.
For series [3], the target named is T1, OsLHY. In words: EMSA. A general note: Mobility shift assays separate free from complexed probe on a gel.
A further series addresses T2, OsNAC15 (Oryza sativa, UniProt K9LKF1 1-301).
T2 sequence: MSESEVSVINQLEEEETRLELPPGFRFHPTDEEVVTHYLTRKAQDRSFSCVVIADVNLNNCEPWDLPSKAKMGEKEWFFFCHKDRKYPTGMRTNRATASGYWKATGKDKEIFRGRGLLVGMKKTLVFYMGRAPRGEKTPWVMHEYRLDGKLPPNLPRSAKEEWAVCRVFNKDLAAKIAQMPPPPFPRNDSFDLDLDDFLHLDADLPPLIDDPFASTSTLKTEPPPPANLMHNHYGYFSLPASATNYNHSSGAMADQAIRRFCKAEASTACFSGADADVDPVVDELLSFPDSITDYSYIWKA
Put plainly: EMSA.

T1 sequence (A0A0P0XBU0 whole entry): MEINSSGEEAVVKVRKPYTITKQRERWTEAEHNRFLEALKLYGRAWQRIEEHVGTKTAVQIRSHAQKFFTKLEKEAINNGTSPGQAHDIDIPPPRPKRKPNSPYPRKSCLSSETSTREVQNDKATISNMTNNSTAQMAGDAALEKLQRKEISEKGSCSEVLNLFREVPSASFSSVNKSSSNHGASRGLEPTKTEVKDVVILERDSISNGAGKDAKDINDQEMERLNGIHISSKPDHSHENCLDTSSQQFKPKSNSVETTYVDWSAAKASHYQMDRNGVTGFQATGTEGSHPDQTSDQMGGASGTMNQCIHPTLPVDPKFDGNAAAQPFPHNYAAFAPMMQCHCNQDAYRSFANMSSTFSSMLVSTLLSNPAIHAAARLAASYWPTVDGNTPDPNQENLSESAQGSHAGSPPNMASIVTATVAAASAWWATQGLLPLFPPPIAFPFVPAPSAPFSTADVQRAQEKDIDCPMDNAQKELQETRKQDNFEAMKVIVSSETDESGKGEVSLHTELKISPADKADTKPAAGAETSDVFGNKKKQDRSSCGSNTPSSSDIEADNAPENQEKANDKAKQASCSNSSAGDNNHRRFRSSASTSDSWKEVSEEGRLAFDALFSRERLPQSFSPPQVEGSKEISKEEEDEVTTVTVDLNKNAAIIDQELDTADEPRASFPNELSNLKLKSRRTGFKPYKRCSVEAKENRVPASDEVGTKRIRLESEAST

B1: OsLHY mCold probe, 3x AAGGCGCCC (dsDNA)
DNA 1: AAGGCGCCCAAGGCGCCCAAGGCGCCC
DNA 2: GGGCGCCTTGGGCGCCTTGGGCGCCTT
Take B1: in the series with OsLHY [1], the binding result was “no binding”.

B2: OsLHY Cold probe, 3x AAGATATTT (dsDNA)
DNA 1: AAGATATTTAAGATATTTAAGATATTT
DNA 2: AAATATCTTAAATATCTTAAATATCTT
For B2, the binding result with OsLHY [2] is “binds”.

B3: OsLHY Bio-probe, 3x AAGATATTT (dsDNA)
DNA 1: AAGATATTTAAGATATTTAAGATATTT
DNA 2: AAATATCTTAAATATCTTAAATATCTT
Regarding B3, the binding result in the series with OsLHY [3] is listed as “binds”.

B4: OsNAC15 Bio-probe, 3x AGCAAGA (dsDNA)
DNA 1: AGCAAGAAGCAAGAAGCAAGA
DNA 2: TCTTGCTTCTTGCTTCTTGCT
In the case of B4, the binding result with OsNAC15 was “binds”.
